From PMC9929924, “Phosphorylation of the receptor protein Pex5p modulates import of proteins into peroxisomes” (Biological Chemistry, 2022) come the findings set out here.

The assay deals with Pex5p^2D cells. Kind of assay: Fluorescence microscopy, peroxisomal import of GFP-tagged proteins in Pex5p^2D-expressing cells. Type of assay: cell-based, S. cerevisiae. Set-up: key to import phenotype category: showed a reduced peroxisomal import and constitute category 1; category 2 characterized by no peroxisomal import; without a noticeable effect on import in Pex5p^2D cells (category 3). As to conditions: GFP-tagged protein, Pex3p-mCherry marker, SD medium, 2% glucose; for import phenotype category: Pex5p^2D-expressing cells, assessed manually. An excerpt:
Query strains were constructed on the basis of an automated mating compatible strain. The query strains contained a peroxisomal marker (Pex3p-mCherry::HIS), a deletion of PEX5 (pex5Δ::NAT) and a plasmid expressing WT or mutant PEX5 (PEX5^WT, PEX5^2D or PEX5^2A). Using an automated mating method ([Cohen and Schuldiner 2011]; [Tong and Boone 2006]), the query strains were crossed with a NOP1pr-N′-GFP-peroxi library ([Dahan et al. 2017]). The NOP1pr-N′-GFP-peroxisomal library is a collection of ∼90 strains containing all the known peroxisomal proteins together with potential peroxisomal proteins and controls, genomically tagged with GFP at their N-terminus and expressed under the generic constitutive SpNOP1 promoter. To perform the manipulations in high-density format we used a RoToR bench top colony arrayer (Singer Instruments). In short: mating was performed on rich medium plates, and selection for diploid cells was performed on SD(MSG)-HIS-URA plates containing Geneticin (200 μg ml^−1) and Nourseothricin (200 μg ml^−1). Sporulation was induced by transferring cells to nitrogen starvation media plates for 7 days. Haploid cells containing the desired mutations were selected by transferring cells to SD-URA-HIS-LYS-ARG-LEU plates containing Geneticin and Nourseothricin (same concentrations as above), alongside the toxic amino acid derivatives Canavanine and Thialysine (Sigma-Aldrich) to select against remaining diploids and select for spores with an α mating type. A similar method was used to generate control, pex5Δ, and pex8Δ strains expressing GFP-Mdh3p (Supplementary Figure 4D), in which the query strain contained a peroxisomal marker (Pex3p-mCherry::NAT) and URA3::GFP-Mdh3p. This query strain was crossed with three strains from the mini peroxisomal deletion library ([Gabay-Maskit et al. 2020]): a control (no deletion), pex5Δ, and pex8Δ strain, all of which contain KAN (Geneticin) resistance.
The yeast collections were visualized using an automated microscopy setup as described previously ([Breker et al. 2013]). In short: cells were transferred from agar plates into 384-well polystyrene plates (Greiner) for growth in liquid media using the RoToR arrayer robot. Liquid cultures were grown in a LiCONiC incubator, overnight at 30 °C in SD-URA-HIS medium. A JANUS liquid handler (PerkinElmer) connected to the incubator was used to dilute the strains to an OD600 of ∼0.2 into plates containing SD medium (6.7 g l^−1 yeast nitrogen base and 2% glucose) supplemented with complete amino acids. Plates were incubated at 30 °C for 4 h. The cultures in the plates were then transferred by the liquid handler into glass-bottom 384-well microscope plates (Matrical Bioscience) coated with Concanavalin A (Sigma-Aldrich). After 20 min, cells were washed three times with SD-Riboflavin complete medium to remove non-adherent cells and to obtain a cell monolayer. The plates were then transferred to the ScanR automated inverted fluorescent microscope system (Olympus) using a robotic swap arm (Hamilton). Images of cells in the 384-well plates were recorded in the same liquid as the washing step at 24 °C using a 60× air lens (NA 0.9) and with an ORCA-ER charge-coupled device camera (Hamamatsu). Images were acquired in two channels: GFP (excitation filter 490/20 nm, emission filter 535/50 nm) and mCherry (excitation filter 572/35 nm, emission filter 632/60 nm). All images were taken at a single focal plane. The same protocol was used to visualize fluorescence signals in GFP-Mdh3p-expressing control, pex5Δ, and pex8Δ strains (Supplementary Figure 4D).

Turning to “Pex8p: essential component of the import machinery for peroxisomal matrix proteins”, the import phenotype category entry is given as “category 1”.

B1: Pnc1p: nicotinamidase, imported by piggy-backing on Gpd1p (protein, UniProt P53184 1-216, looked up)
Nicotinamidase: MKTLIVVDMQNDFISPLGSLTVPKGEELINPISDLMQDADRDWHRIVVTRDWHPSRHISFAKNHKDKEPYSTYTYHSPRPGDDSTQEGILWPVHCVKNTWGSQLVDQIMDQVVTKHIKIVDKGFLTDREYYSAFHDIWNFHKTDMNKYLEKHHTDEVYIVGVALEYCVKATAISAAELGYKTTVLLDYTRPISDDPEVINKVKEELKAHNINVVDK
For the molecule B1, under “Pex5p^2D cells”, the “subcellular distribution / peroxisomal import” value is given as “no differences in localization”.

B2: Str3p: peroxisomal cystathionine beta-lyase (protein, UniProt P53101 1-465, looked up)
Cystathionine beta-lyase: MPIKRLDTVVVNTGSQNDQHSASVPPVYLSTTFKVDLNNEDAQNYDYSRSGNPTRSVLQHQIGKLYRVPQENVLAVSSGMTALDVILRGLVLLNGTDNHTPTIIAGDDLYGGTQRLLNFFKQQSHAVSVHVDTSDFEKFKTVFQSLDKVDCVLLESPTNPLCKVVDIPRILRFVKCISPDTTVVVDNTMMSGLNCNPLQLNPGCDVVYESATKYLNGHHDLMGGVIISKTPEIASKLYFVINSTGAGLSPMDSWLLVRGLKTLGVRLYQQQRNAMILAHWLENSCGFKPTRTNKATKTRFVGLRSNPDFKLHKSFNNGPGAVLSFETGSFEHSKRLVSSKKLSIWAVTVSFGCVNSLLSMPCKMSHASIDPELRKERDFPEDLVRLCCGIENIVDLKKDLLAAMVDADIIEVRENGKYLFNKLNKNLAVNTTIDDLHKPLSIYEEFYNQDLIRKDSELNIKSSKL
For B2, the import phenotype category result is reported as “category 3”.

B3: Idp3p (protein, UniProt P53982 1-420, looked up)
Isocitrate dehydrogenase …: MSKIKVVHPIVEMDGDEQTRVIWKLIKEKLILPYLDVDLKYYDLSIQERDRTNDQVTKDSSYATLKYGVAVKCATITPDEARMKEFNLKEMWKSPNGTIRNILGGTVFREPIIIPKIPRLVPHWEKPIIIGRHAFGDQYRATDIKIKKAGKLRLQFSSDDGKENIDLKVYEFPKSGGIAMAMFNTNDSIKGFAKASFELALKRKLPLFFTTKNTILKNYDNQFKQIFDNLFDKEYKEKFQALKITYEHRLIDDMVAQMLKSKGGFIIAMKNYDGDVQSDIVAQGFGSLGLMTSILITPDGKTFESEAAHGTVTRHFRKHQRGEETSTNSIASIFAWTRAIIQRGKLDNTDDVIKFGNLLEKATLDTVQVGGKMTKDLALMLGKTNRSSYVTTEEFIDEVAKRLQNMMLSSNEDKKGMCKL
In the case of B3, the import phenotype category result is “category 2”.

B4: Mls1p (protein, UniProt P30952 1-554, looked up)
Malate synthase 1: MVKVSLDNVKLLVDVDKEPFFKPSSTTVGDILTKDALEFIVLLHRTFNNKRKQLLENRQVVQKKLDSGSYHLDFLPETANIRNDPTWQGPILAPGLINRSTEITGPPLRNMLINALNAPVNTYMTDFEDSASPTWNNMVYGQVNLYDAIRNQIDFDTPRKSYKLNGNVANLPTIIVRPRGWHMVEKHLYVDDEPISASIFDFGLYFYHNAKELIKLGKGPYFYLPKMEHHLEAKLWNDVFCVAQDYIGIPRGTIRATVLIETLPAAFQMEEIIYQLRQHSSGLNCGRWDYIFSTIKRLRNDPNHILPNRNQVTMTSPFMDAYVKRLINTCHRRGVHAMGGMAAQIPIKDDPAANEKAMTKVRNDKIRELTNGHDGSWVAHPALAPICNEVFINMGTPNQIYFIPENVVTAANLLETKIPNGEITTEGIVQNLDIGLQYMEAWLRGSGCVPINNLMEDAATAEVSRCQLYQWVKHGVTLKDTGEKVTPELTEKILKEQVERLSKASPLGDKNKFALAAKYFLPEIRGEKFSEFLTTLLYDEIVSTKATPTDLSKL
On to B4, for which the import phenotype category entry is “category 2”.
